Where no end group is shown, it is not given here. Cy5.5 maleimide = Cy5.5 label attached to cysteine thiol by maleimide-activated reaction
Tests used:
TRPV6 [1] = target: T1, TRPV6 (Homo sapiens, UniProt Q9H1D0); assay: Equilibrium dissociation constant (Kd) in an LNCaP model; type: binding; set-up: endogenous in cells; host or cells: LNCaP
T1 sequence (Q9H1D0 1-765): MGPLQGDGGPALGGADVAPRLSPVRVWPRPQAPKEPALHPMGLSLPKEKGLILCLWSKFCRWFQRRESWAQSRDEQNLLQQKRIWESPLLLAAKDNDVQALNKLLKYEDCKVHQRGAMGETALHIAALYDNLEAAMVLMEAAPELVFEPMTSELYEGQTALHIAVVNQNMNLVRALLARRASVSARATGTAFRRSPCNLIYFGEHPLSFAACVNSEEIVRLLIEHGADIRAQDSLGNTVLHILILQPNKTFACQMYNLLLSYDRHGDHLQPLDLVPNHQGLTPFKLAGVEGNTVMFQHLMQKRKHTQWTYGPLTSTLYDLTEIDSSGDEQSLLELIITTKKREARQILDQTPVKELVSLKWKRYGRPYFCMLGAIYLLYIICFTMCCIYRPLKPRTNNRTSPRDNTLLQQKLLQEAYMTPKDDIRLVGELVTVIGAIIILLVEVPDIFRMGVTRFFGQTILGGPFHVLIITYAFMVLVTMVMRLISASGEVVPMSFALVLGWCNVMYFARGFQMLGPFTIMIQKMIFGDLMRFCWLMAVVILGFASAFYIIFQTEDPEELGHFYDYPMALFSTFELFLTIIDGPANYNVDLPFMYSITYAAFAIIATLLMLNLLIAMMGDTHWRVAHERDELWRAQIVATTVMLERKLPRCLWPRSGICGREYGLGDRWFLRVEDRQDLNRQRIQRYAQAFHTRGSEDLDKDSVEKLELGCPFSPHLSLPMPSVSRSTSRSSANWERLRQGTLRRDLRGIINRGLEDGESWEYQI
Excerpt: As noted above, a TRPV6-binding peptide of the invention will have calcium channel binding activity. The peptides having such activity are readily identified with any known assays suitable for measuring binding of the peptides with TRPV6. For example, in one embodiment, a peptide having calcium channel inhibition activity is optionally identified by determining that the peptide reduces calcium channel activity by reducing (i.e., partially or fully inhibiting) the flow of calcium through calcium channels. TRPV6-binding activity can also be measured using methods such as: internalized calcifluors (such as FURA-2 am); whole cell patch clamping to measure inhibition calcium currents electrophysiologically; equilibrium binding assays using peptides labeled with detectable tags such as radioactive or fluorescent tags; and/or NMR determination of ‘bound’ and ‘unbound’ peptides. In some embodiments, the TRPV6-binding peptides also have i) calcium channel blocking and ii) lack of paralytic activity.
Calcium channel binding activity is optionally identified by using a readily available cell line (e.g. human embryonic kidney cell lines-HEK293) transfected with an expression vector for TRPV6. Such transfected cells are readily aliquoted and stored (typically −80° C.) until required. […]

[2] = Tissue distribution of Cy5.5-labeled peptides after i.v. injection, optical imaging; type: in vivo, CD1 mice
Excerpt: SorC13 and SorC27 were labeled with the near-infrared probe, Cy5.5. SorC13 was labeled at lysine-1 and lysine-8 with the infrared fluorescent probe cy5.5 through reaction with Cy5.5 NHS ester-activated process. SorC27 was labeled at the single cysteine thiol with Cy5.5 maleimide-activated reaction. The labeled peptides were purified with a combination of size exclusion chromatography and HPLC. The label, Cy5.5, fluoresces in the infra-red region after excitation with a scanning laser. The low energy laser is able to penetrate the animal to about 1 cm and, thus, by scanning prone and supine positions, the presence of the tagged peptides can be quantified in three dimensions.
Cy5.5-labeled peptides were intravenously injected into CD1 mice (4 for each compound) at 100 μg per animal in 100 μL, and animals were imaged live using an optical imaging system, Optix explorer (GE Healthcare Systems) at different time points (30 min, 90 min, 4 h). […] The bio-distribution of the labeled peptides in different organs and tissues were visualized and relatively quantified by optical imaging analysis. This protocol allows for visualization of the location of the labeled peptides and how the location changes over time. […] Nodes that accumulated the labeled peptides are indicated by line 1 (superfacial cervical nodes), line 4 (axillary nodes), line 5 (brachial nodes), line 8 (mesenteric nodes) and line 9 (inguinal nodes). FIGS. 2, 3 and 4 show the amounts of labeled peptides in various organs ex vivo.

TRPV6 [3] = target: T1, TRPV6; assay: Co-localization with TRPV6 antibody in HEK-293 cells transfected with a TRPV6 expression vector; type: cell-based
Experimental: HEK-293 cells were transfected with a TRPV6 expression vector and incubated with fluorescently labeled antibodies to the N-terminal peptides of TRPV6 as well as fluorescently labeled SorC27 (SorC27-cy5.5). HEK-293 cells that were not transfected with a TRPV6 expression vector were also incubated with fluorescently labeled anti-TRPV6 and SorC27-cy5.5 as a negative control (FIG. 6A).

[4] = tested on: TRPV6-rich ovarian (SKOV-3 cells) tumors; assay: Localization of SorC27-cy5.5 to xenografted ovarian tumors in vivo (optical imaging); set-up: species or system nude CD1 mice; details: 100 μg intraperitoneally, SKOV-3 ovarian xenograft
Experimental: (§1) Mice xenografted with a TRPV6-rich ovarian (SKOV-3 cells) and prostate (DU145 cells) tumors were injected (intraperitoneally) with the fluorescently-labeled TRPV6-binding peptide SorC27-cy5.5. SorC27 was labeled with the near-infrared probe Cy5.5 at the single cysteine thiol using a Cy5.5 maleimide-activated reaction. The labeled peptides were purified with a combination of size exclusion chromatography and HPLC. Cy5.5, fluoresces in the infra-red region after excitation with a scanning laser. The low energy laser is able to penetrate the animal to about 1 cm and, thus, by scanning, the presence of the tagged peptides can be quantified in three dimensions. Cy5.5-labeled peptides were intraperitoneally injected into nude CD1 mice at 100 μg per animal, and animals were imaged live using an optical imaging system, Optix explorer (GE Healthcare Systems) at different time points (30 min, 90 min, 4 h).

[5] = tested on: prostate (DU145 cells) tumors; assay: Localization of SorC27-cy5.5 to xenografted prostate tumors in vivo (optical imaging); set-up: species or system nude CD1 mice; details: 100 μg intraperitoneally, DU145 prostate xenograft
Experimental: as §1

[6] = tested on: ovarian TRPV6-rich tumor (SKOV-3 cells); assay: SorC27-cy5.5 in mice xenografted with SKOV-3 tumor (Example 9); type: in vivo; details: SKOV-3 xenograft
Experimental: Mice xenografted with an ovarian TRPV6-rich tumor (SKOV-3 cells) are injected with the fluorescently-labeled TRPV6-binding peptide SorC27-cy5.5.

TRPV6 [7] = target: T1, TRPV6; assay: Co-localization of SorC27-cy5.5 and fluorescently labeled TRPV6 antibodies in cancer cell lines; type: cell-based; set-up: endogenous in cells; host or cells: PC-3, T 47D, SKOV-3
Excerpt: The level of TRPV6 immunofluorescence and SorC27-cy5.5 fluorescence are both increased in the transfected cells with increased TRPV6 expression shown in the B1-B3 series of FIG. 7 compared to the cells in the A1-A3 series of FIG. 7.
The level of TRPV6 immunofluorescence and SorC27-cy5.5 fluorescence are both increased in the transfected cells with greater TRPV6 expression shown in the B1-B3 series of FIG. 8 compared to the cells in the A1-A3 series of FIG. 8.
The level of TRPV6 immunofluorescence and SorC27-cy5.5 fluorescence are both increased the transfected cells with greater TRPV6 expression shown in the B1-B3 series of FIG. 9 compared to the cells in A1-A3 series of FIG. 9.

TRPV6 [8] = target: T1, TRPV6; assay: Fluorescently tagged peptide on staged tumor tissue micro-arrays (Example 7); set-up: from tissue; host or cells: ovarian cancer tumour sections on tissue micro-arrays; details: Stage I to Stage IV tissue micro-arrays
Experimental: Fluorescently tagged TRPV6-binding peptides are useful to determine the stage of a tumor by direct incubation of Tissue Micro-Arrays (TMA) with the peptide reagent. SorC27-cy5.5 compound is incubated with cells from a subject and fluorescence levels are compared to levels from control staged tumor samples.

## HPSKVDLPR [SorC9, HPSKVDLPR]
TRPV6 [1]
  Kd: ~0.09 µM

## SorC27-cy5.5: SorC27 labeled at the single cysteine thiol with Cy5.5 maleimide-activated reaction (EGKLSSNDTEGGLC(Cy5.5 maleimide)KEFLHPSKVDLPR)
[2]; 100 μg i.v., CD1 mice, imaging up to 4 h
  predominant tissue localization: localize predominantly in lymph nodes, lung, liver and kidney
[2]; 24 hours, after perfusion to remove blood and lymph
  detectability in tissues after perfusion: still detectable in these tissues
[2]; four hours after i.v. injection of 100 μg
  accumulation in lymph nodes (superfacial cervical, axillary, branchial, mesenteric, inguinal): Significant accumulation
TRPV6 [3]; HEK293 cells not transfected with the TRPV6 expression vector
  fluorescence in non-transfected cells (negative control): no fluorescence
TRPV6 [3]; HEK-293 cells transfected with TRPV6 expression vector
  binding to TRPV6 (co-localization with anti-TRPV6): bound to TRPV6
[4]
  time tumor is clearly detected in vivo after injection: at least 24 hours
[5]
  time tumor is clearly detected in vivo after injection: at least 24 hours
[6]
  detection of xenografted tumor by fluorescence: detected in vivo
TRPV6 [7]; PC-3
  SorC27-cy5.5 fluorescence in TRPV6-transfected versus non-transfected cells: increased
TRPV6 [7]; SKOV-3
  SorC27-cy5.5 fluorescence in TRPV6-transfected versus non-transfected cells: increased
TRPV6 [7]; T 47D
  SorC27-cy5.5 fluorescence in TRPV6-transfected versus non-transfected cells: increased
TRPV6 [7]; breast cancer cell line T 47D
  co-localization with TRPV6 antibody: co-localization of SorC27-cy5.5 and TRPV6
TRPV6 [7]; ovarian cancer cell line SKOV-3
  co-localization with TRPV6 antibody: co-localization of SorC27-cy5.5 and TRPV6
TRPV6 [7]; prostate cancer cell line PC-3
  co-localization with TRPV6 antibody: co-localization of SorC27-cy5.5 and TRPV6
TRPV6 [8]
  fluorescent signal with tumor stage: increase in the intensity of the fluorescent signal

— patent publication US12458618B2, “Compounds and methods for the detection of TRPV-6 cancers and drug delivery” (Soricimed Biopharma Inc., priority 2009, dated 2025)
